The results in this text go back to patent publication CN114316037A.

Substrate in this experiment: O型口蹄疫病毒灭活抗原 (Foot-and-mouth disease virus, serotype O (strain not stated))

B1: 单克隆抗体m19 (O型口蹄疫病毒结构蛋白的单克隆抗体m19) (antibody, V domains shown)
VH: QVQLQQPGSELVRPGASVNLSCKASGYTFPSYWMHWVKQRPGQGLEWIGNIFPDGGFTNYDENFKSRATLTVDTSSSTAYMQLSSLTSEDSAVYYCTTIYDYVVGVGAMDYWGQGTSVTVSS
VL: DIVMTQSPAIMSASPGEKVTITCSASSSISYMYWFQQKTGTSPKLWIYKTSDLASGVPARFSGSGSGTSYSLTISRMEAEDAATYYCQQRNSYTFGGGTKLELK
As for B1, the 最佳使用浓度 (concentration giving OD450 of 1.6) was 7 µg/mL.
